Assay [1] has as its target H6-TacT^WT toxin (Gcn5-related N-acetyltransferase TacT) (Salmonella enterica subsp. enterica serovar Typhimurium LT2) (UniProt Q8ZL98). The assay is described as follows: SEC. A general note: SEC sorts molecules by how far they enter the pores of the column.
The target of assay [2] is TacAT^WT complex (one H6-TacT with one TacA) (Salmonella enterica subsp. enterica serovar Typhimurium LT2) (UniProt Q8ZL98). Nature of the assay: SEC; Superose 12 10/300 GL; 50 mM HEPES pH 7.0 at 4°C, 150 mM NaCl, 20% glycerol; co-purified TacAT complexes applied; molecular weight from a standard curve of gel filtration standards.

Broadly, the stoichiometry N is a count of units in the complex or per binding partner.

UniProt Q8ZL98, sequence (Q8ZL98 whole entry): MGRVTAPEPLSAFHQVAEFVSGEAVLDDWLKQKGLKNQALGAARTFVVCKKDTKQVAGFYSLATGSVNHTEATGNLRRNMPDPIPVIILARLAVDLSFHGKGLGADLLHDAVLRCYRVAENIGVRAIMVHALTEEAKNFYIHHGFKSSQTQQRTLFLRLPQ

Substance “TacA^WT antitoxin (tagless native TacA) (natural protein)” came in with a stoichiometry N in assay [1] of 1.

In assay [2], “TacAT^WT complex (one H6-TacT with one TacA) (from UniProt Q8ZL98 1-161)” gave a stoichiometry N of 2.

For the origin of these results see article PMC5449658.
